Read-outs that look alike come from different tables or passages of the source.
Key:
[1] = system: IgE of sera of house dust mite allergic patients binding to nDer p 2; experiment: Competition ELISA on Der p 2 coated plates; design: species or system human; conditions: for IgE binding in competition ELISA (Der p 2): sera from patients allergic to house dust mites, COPs 10^−5 to 10^−10 M
Description: (§1) Purified Der p 1 or Der p 2 at 1.0 μg/ml were coated overnight on 96-well Nunc Maxisorp® immunoplates (Thermo Fisher Scientific Inc., Wohlen, Switzerland). After blocking with 1% BSA, either twenty-fold, thirty-fold or forty-fold up to 200-fold dilutions of patient serum were added depending on specific IgE content. […] Sera of allergic patients were obtained from US and Europe (PlasmaLab International, Everett, Wash., USA and Biomnis, Lyon, France) respectively) selected for positive CAP for D. pteronyssinus and clear signal over background and used to test for competition with the peptides. Serial dilutions of each set of COPs, namely for Der p 1 Set A, B, C or D and for Der p 2 mixes D, E or F at concentrations ranging from 10^−5 to 10^−10 M were pre-incubated with selected serums for 15 min. on ice.

[2] = Solubility Characteristics of COPs; assay type: physicochemical
Description: All COPs were synthesized by solid phase fmoc chemistry at research scale to allow determination of IgE binding. […] Peptides were resuspended either in water at 2 mg/ml or at 10 to 20 mg per ml in DMSO (see Table 1) and frozen in aliquots.

IgE = experiment: Direct ELISA of Der p 2 COPs; assay type: binding, human
[3] = system: IgE of sera of house dust mite allergic patients binding to nDer p 1; experiment: Competition ELISA on Der p 1 coated plates; design: species or system human; conditions: for IgE binding in competition ELISA (Der p 1): sera from patients allergic to house dust mites, COPs 10^−5 to 10^−10 M
Description: as §1

[4] = system: RBL-703/21 cells transfected with human Fc epsilon RI receptor, sensitized with sera from patients with house dust mite allergy; experiment: RBL degranulation; assay type: cell-based; conditions: RBL cells pre-loaded with 18 human serums; AllerDM up to 10^−5M
Description: Degranulation assay was performed as described in [37]. RBL-703/21 cells transfected with human Fc epsilon RI receptor were plated in 96-well tissue culture plates (10^5 cells/well) overnight. Passive sensitization of RBL-703/21 cells was carried out with sera from patients with house dust mite allergy at 1:20 overnight. Unbound antibodies were removed by washing the cell layer twice in Hanks' balanced salt solution (Gibco, Life technologies) the next day. Degranulation of RBL cells was induced for 1 h at 37° C. by adding nDer p1, nDer p 2 or individual COPs and mixes at indicated concentrations diluted in Tyrode's buffer (130 mM NaCl, 5 mM KCl, 1.4 mM CaCl2, 1 mM MgCl2, 5.6 mM glucose, 10 mM HEPES pH7.4, 0.1% BSA). β-hexosaminidase activity was analyzed by incubating 30 μl of cell supernatant with 50 μl of 1.3 mg/ml 4-Nitrophenyl N-acetyl-β-D-glucosaminide (Sigma) in citrate buffer (0.1M, pH 4.5) for 1 h at 37° C. The reaction was stopped by addition of 100 μl glycine buffer (0.2M glycine, 0.2M NaCl, pH 10.7) and optical densities (OD) were measured at 405 nm.

Q: What does the source list for “DQVDVKDCANHEIKKVLVPGCHGSEPCIIHRGKPFQLEAVFEANQNTKTAKIEIKASIDGLEVDVPGIDPNA [AllerDM2.1]”?
A: IgE binding in competition ELISA (Der p 2) [1]: did not bind IgE; Conc. ([2]; pH 5): 1000 µg/mL

Q: For “SEPCIIHRGKPFQLEALFEANQNSKTAKIEIKASIDGLEVDVPGIDPNACHYMKCPLVKGQQYDIKYTWNVPKIA [AllerDM2.7]”, which “IgE binding in competition ELISA (Der p 2)” value [1] is on record?
A: residual IgE binding

Q: What about the Conc. [2] of the same molecule?
A: 3500 µg/mL

Q: Which “effect of denaturing salts on IgE binding (Der p 2 competition ELISA)” value ([1]; denaturing salts incl. guanidinium chloride or urea, 30 min pre-incubation with 1M guanidinium chloride) does the source give for “SIDGLEVDVPGIDPNACHYMKCPLVKGQQYDIKYTWNVPKIAPKSENVVVTVKVMGDDGVLACAIATHAKIRD [AllerDM2.2]” here?
A: strongly diminished IgE binding

Q: And the “IgE binding in direct ELISA” value (IgE)?
A: found to bind IgE

Q: And the Conc. [2]?
A: 1700 µg/mL

B1: AIAVIIGIKDLDAFRHYDGRTIIQRDNGYQPNYHAVNIVGYSNAQGVDYWIVRNSWDTNWGDNGYGYFAANIDLMMIEEYPYVVIL (peptide)
peptide: AIAVIIGIKDLDAFRHYDGRTIIQRDNGYQPNYHAVNIVGYSNAQGVDYWIVRNSWDTNWGDNGYGYFAANIDLMMIEEYPYVVIL
Q: What does the source list for B1?
A: IgE binding in competition ELISA (Der p 1) [3]: Residual IgE binding was observed; Conc. [2]: 500 µg/mL

B2: TNACSINGNAPAEIDLRQMRTVTPIRMQGGCGSCWAFSGVAATESAYLAYRNQSLDLAEQELVDCA (peptide, listed as Dermatophagoides pteronyssinus)
chain: TNACSINGNAPAEIDLRQMRTVTPIRMQGGCGSCWAFSGVAATESAYLAYRNQSLDLAEQELVDCA
notes: Der p 1 contiguous overlapping peptide, 66AA
Q: Which “IgE binding in competition ELISA (Der p 1)” value [3] does the source give for B2 here?
A: no detectable IgE binding

Q: What about the “solubility remark” value ([2]; 1.2: when added to Citrate buffer or PBS at 2 × 10^−5M) of the same molecule?
A: NaOH) Difficult pH8

Q: What about the Conc. ([2]; H2O, pH adjusted with HCl and NaOH) of the same molecule?
A: 1000 µg/mL

B3: Der p 1: purified natural Der p 1 house dust mite major allergen from Indoor Biotechnologies Ltd (protein)
chain: TNACSINGNAPAEIDLRQMRTVTPIRMQGGCGSCWAFSGVAATESAYLAYRNQSLDLAEQELVDCASQHGCHGDTIPRGIEYIQHNGVVQESYYRYVAREQSCRRPNAQRFGISNYCQIYPPNVNKIREALAQTHSAIAVIIGIKDLDAFRHYDGRTIIQRDNGYQPNYHAVNIVGYSNAQGVDYWIVRNSWDTNWGDNGYGYFAANIDLMMIEEYPYVVIL
Q: Which “concentration range of competition (Der p 1 control)” value ([3]; panel of 21 sera) does the source give for B3 here?
A: 10^−7 to 10^−9 M

Q: What about the “basophil degranulation of RBL cells, serum panel” value [4] of the same molecule?
A: able to induce degranulation

B4: TNACSINGNAPAEIDLRQMRTVTPIRMQGGCGSCWAFSGVAATESAYLAYRNQSLDLAEQELVDCASQHG (peptide, listed as Dermatophagoides pteronyssinus)
chain: TNACSINGNAPAEIDLRQMRTVTPIRMQGGCGSCWAFSGVAATESAYLAYRNQSLDLAEQELVDCASQHG
notes: Der p 1 contiguous overlapping peptide, 70AA, T99 to G168
Q: Which results are given for B4?
A: IgE binding in competition ELISA (Der p 1) [3]: no detectable IgE binding; Conc. ([2]; Solvent 7M guanidinium chloride): 30000 µg/mL

B5: Der p 2: purified natural Der p 2 house dust mite major allergen from Indoor Biotechnologies Ltd (protein)
chain: DQVDVKDCANHEIKKVLVPGCHGSEPCIIHRGKPFQLEALFEANQNSKTAKIEIKASIDGLEVDVPGIDPNACHYMKCPLVKGQQYDIKYTWNVPKIAPKSENVVVTVKVLGDNGVLACAIATHAKIRD
Q: Which “concentration range of competition (Der p 2 control)” value ([1]; panel of 21 sera) does the source give for B5 here?
A: 10^−7 to 10^−9 M

Q: What about the “basophil degranulation of RBL cells, serum panel” value [4] of the same molecule?
A: able to induce degranulation

— patent publication US20150050301A1, “Contiguous Overlapping Peptides for Treatment of House Dust Mites Allergy” (ANERGIS S.A., priority 2013, published 2015)
